Measurements reported in doi:10.1101/2022.05.30.494040.
pEC50: −log10 of the molar value.

How the values were obtained:
[1] = target: Stx3 145-161 peptides (human) (UniProt Q13277); experiment: peptide or protein array
full-length SNAP23 = full-length SNAP23 (UniProt O00161); experiment: AlphaScreen or HTRF
full-length Stx4 = full-length Stx4 (UniProt Q12846); experiment: AlphaScreen or HTRF
full-length Stx2 (human) = full-length Stx2 (human) (UniProt P32856); experiment: AlphaScreen or HTRF
SNAP25 (human) = SNAP25 (human) (UniProt P60880); experiment: AlphaScreen or HTRF
Sequence of UniProt P60880 (P60880 whole entry): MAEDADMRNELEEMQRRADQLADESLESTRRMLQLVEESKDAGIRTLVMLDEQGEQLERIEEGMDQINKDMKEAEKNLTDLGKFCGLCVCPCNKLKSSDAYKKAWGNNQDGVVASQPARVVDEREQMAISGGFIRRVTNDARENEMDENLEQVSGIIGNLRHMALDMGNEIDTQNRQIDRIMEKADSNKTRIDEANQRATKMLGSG

Sequence of UniProt Q12846 (Q12846 whole entry): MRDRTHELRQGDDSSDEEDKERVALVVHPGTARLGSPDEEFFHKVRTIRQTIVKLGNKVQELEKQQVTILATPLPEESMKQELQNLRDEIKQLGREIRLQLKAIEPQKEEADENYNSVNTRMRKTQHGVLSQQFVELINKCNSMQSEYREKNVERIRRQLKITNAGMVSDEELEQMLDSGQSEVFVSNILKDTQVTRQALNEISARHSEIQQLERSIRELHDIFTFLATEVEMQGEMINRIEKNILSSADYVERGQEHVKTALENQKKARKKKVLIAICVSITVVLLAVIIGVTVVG
Sequence of UniProt P32856 (P32856 whole entry): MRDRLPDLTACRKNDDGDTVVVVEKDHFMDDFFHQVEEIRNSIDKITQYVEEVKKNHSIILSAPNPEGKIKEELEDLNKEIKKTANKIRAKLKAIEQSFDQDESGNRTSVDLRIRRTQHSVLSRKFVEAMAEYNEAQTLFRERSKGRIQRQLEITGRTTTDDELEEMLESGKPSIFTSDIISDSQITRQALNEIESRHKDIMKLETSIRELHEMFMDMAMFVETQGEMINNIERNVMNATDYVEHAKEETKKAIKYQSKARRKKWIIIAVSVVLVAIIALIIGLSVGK
Sequence of UniProt O00161 (O00161 whole entry): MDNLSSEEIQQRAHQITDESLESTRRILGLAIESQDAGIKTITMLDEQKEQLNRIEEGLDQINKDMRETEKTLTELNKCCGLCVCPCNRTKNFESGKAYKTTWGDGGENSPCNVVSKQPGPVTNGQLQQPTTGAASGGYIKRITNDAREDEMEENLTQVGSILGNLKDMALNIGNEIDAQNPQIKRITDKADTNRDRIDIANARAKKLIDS

Substance	fold weaker binding than Stx2 144-160 [1] [fold]	pEC50 (full-length SNAP23)	pEC50 (full-length Stx4)	pEC50 (full-length Stx2 (human))	pEC50 (SNAP25 (human))
His-tagged recombinant Gβ1γ2 (from UniProt P62873;P59768) (complex)	5	7.11	7.04	7.19	–
His-tagged recombinant Gβ1γ2 (from UniProt P62873;P59768) (complex; other documents disagree on this pair)	–	–	–	–	7.34
